In patent US20250108100A1, “C-TERMINAL FRAGMENT OF APOLIPOPROTEIN E AND APPLICATION THEREOF IN INHIBITING y-SECRETASE ACTIVITY” (SYNPHATEC (SHANGHAI) BIOPHARMACEUTICAL TECHNOLOGY CO., LTD., priority 2022, published 2025):

Test system: primary cultured mouse hippocampal or cortical neurons
Assay: Endogenous Aβ40 in primary cultured mouse cortical or hippocampal neurons (lentivirus, ELISA)
Type: cell-based
Details: for endogenously produced Aβ40: lentivirus
Protocol: Primary cultured neurons were derived from the cortex or hippocampus of 16-day embryonic mice. The mouse cortex or hippocampus was obtained under a stereoscope, and was digested at 37° C. for 10 minutes with 20 U/ml papain (Worthington Company). After digestion, the neurons that exist in single-cell form were seeded with 100,000 neurons per well (24-well plate); the neurons were cultured in the neuron culture medium (Neurobasal medium; ThermoFisher Company) containing 2% B27 (ThermoFisher Company) and 1% penicillin/streptomycin; the fresh culture medium was changed once a week.
The experiment was performed according to the standard procedure in the ELISA analysis kit of Invitrogen Company. • a) The target protein was expressed in HEK 293T cell line. Cells were subcultured one day before transfection, and transfection was performed when the degree of cell adhesion reached 70%-80%. The transfection reagent was lipofectamine2000 (ThermoFisher). • b) 4-6 hours post transfection, medium were replaced with fresh cell culture medium. • c) 36-48 hours post transfection, the cell culture medium was collected, and then the ELISA process was performed or the cell culture medium was frozen in a −80° C. refrigerator. • d) 50 μl of standard samples and experimental samples were added to each well of the 96-well plate. • e) 50 μl of human-derived Aβ40 or Aβ42 or mouse-derived Aβ40 detection antibody was added to each well of the 96-well plate. • f) The above samples were shaken gently and placed at room temperature for 3 hours. • g) The liquid in the well were removed, and the plate was washed 4 times with 1× wash buffer. • h) 100 μl of the buffer containing 1× anti-Rabbit IgG HRP was added. • i) The plate was shaken gently and placed at room temperature for […]. • j) The liquid in the well were removed, and the well was washed 4 times with 1× wash buffer. • k) 100 μl of Stabilized Chromogen was added to each well, and the plate was placed in the dark for 30 minutes at room temperature. • l) 100 μl of Stop Solution was added to each well. • m) The absorbance at 450 nm was measured with a microplate reader. 2.4 qRT-PCR
• a) Construction of lentivirus expression plasmids, lentivirus-GFP and lentivirus-ApoE CT, which can be specifically expressed in neurons. • b) The lentivirus vectors were cotransfected with coat protein vectors (PSPAX2 and PMD2G) in HEK 293T cell line. Cells were subcultured one day before transfection, and transfection was performed when the degree of cell adhesion reached 70%-80%. […]
48 hours after transfection of HEK 293T cells and N2A cells, or 4.5 days after lentivirus infection of neurons, media and lysates were collected. Aβ40 and Aβ42 in the culture medium and cell lysates were detected by an Aβ ELISA kit as indicated in the protocol. […]

B1: ApoE CT: C-terminal fragment of ApoE, positions 216-299 of SEQ ID NO: 12; SEQ ID NO: 33 (protein)
chain: ARMEEMGSRTRDRLDEVKEQVAEVRAKLEEQAQQIRLQAEAFQARLKSWFEPLVEDMQRQWAGLVEKVQAAVGTSAAPVPSDNH
reduction in endogenous Aβ40 (mouse cortical and hippocampal neurons, lentiviral infection, vs GFP controls): 30% | endogenously produced Aβ40 (primary cultured mouse cortical neurons): about 73 % of the control group | endogenously produced Aβ40 (primary cultured mouse hippocampal neurons): about 71 % of the control group | endogenously produced Aβ40 (primary cultured mouse neurons, vs GFP control): can reduce the endogenous production of Aβ40
